This test deals with SARS-CoV-2. The format is cell-based.

B1: lactoferrin (protein, UniProt P02788 20-710, looked up)
Lactotransferrin: GRRRSVQWCAVSQPEATKCFQWQRNMRKVRGPPVSCIKRDSPIQCIQAIAENRADAVTLDGGFIYEAGLAPYKLRPVAAEVYGTERQPRTHYYAVAVVKKGGSFQLNELQGLKSCHTGLRRTAGWNVPIGTLRPFLNWTGPPEPIEAAVARFFSASCVPGADKGQFPNLCRLCAGTGENKCAFSSQEPYFSYSGAFKCLRDGAGDVAFIRESTVFEDLSDEAERDEYELLCPDNTRKPVDKFKDCHLARVPSHAVVARSVNGKEDAIWNLLRQAQEKFGKDKSPKFQLFGSPSGQKDLLFKDSAIGFSRVPPRIDSGLYLGSGYFTAIQNLRKSEEEVAARRARVVWCAVGEQELRKCNQWSGLSEGSVTCSSASTTEDCIALVLKGEADAMSLDGGYVYTAGKCGLVPVLAENYKSQQSSDPDPNCVDRPVEGYLAVAVVRRSDTSLTWNSVKGKKSCHTAVDRTAGWNIPMGLLFNQTGSCKFDEYFSQSCAPGSDPRSNLCALCIGDEQGENKCVPNSNERYYGYTGAFRCLAENAGDVAFVKDVTVLQNTDGNNNEAWAKDLKLADFALLCLDGKRKPVTEARSCHLAMAPNHAVVSRMDKVERLKQVLLHQQAKFGRNGSDCPDKFCLFQSETKNLLFNDNTECLARLHGKTTYEKYLGPQYVAGITNLKKCSTSPLLEACEFLRK
For the molecule B1, the “efficacy in preventing SARS-CoV-2 infection” value (Huh-7 cells, FIG. 2) is reported as roughly 100%. Moreover, where the note is “all concentrations of lactoferrin tested, FIG. 3B”, the “inhibition of SARS-CoV-2 infection (efficacy)” value was determined as 100%. In addition, the “reduction in SARS-Cov-2 synctitia” value (dose response study, all concentrations tested ranging from 200 ug/mL to 12.5 ug/mL, compared to viral control, FIG. 3A) is reported as greater than 95%.

These data come from patent publication US20230149515A1, “INHIBITION OF SARS-COV-2 VIRAL ENTRY THROUGH ORAL ADMINISTRATION OF L[…] USES THEREOF” (priority 2020, published 2023).
